The text below walks through data of paper PMC12828022 (Nature Communications, 2025).

For experiment [1], the target named is T1, IL-17RA residues 361-866 (SEFIR domain and SEFEX, as part of the IL-17RB-RA fusion) (human, UniProt Q96F46-1 361-866).
T1 sequence: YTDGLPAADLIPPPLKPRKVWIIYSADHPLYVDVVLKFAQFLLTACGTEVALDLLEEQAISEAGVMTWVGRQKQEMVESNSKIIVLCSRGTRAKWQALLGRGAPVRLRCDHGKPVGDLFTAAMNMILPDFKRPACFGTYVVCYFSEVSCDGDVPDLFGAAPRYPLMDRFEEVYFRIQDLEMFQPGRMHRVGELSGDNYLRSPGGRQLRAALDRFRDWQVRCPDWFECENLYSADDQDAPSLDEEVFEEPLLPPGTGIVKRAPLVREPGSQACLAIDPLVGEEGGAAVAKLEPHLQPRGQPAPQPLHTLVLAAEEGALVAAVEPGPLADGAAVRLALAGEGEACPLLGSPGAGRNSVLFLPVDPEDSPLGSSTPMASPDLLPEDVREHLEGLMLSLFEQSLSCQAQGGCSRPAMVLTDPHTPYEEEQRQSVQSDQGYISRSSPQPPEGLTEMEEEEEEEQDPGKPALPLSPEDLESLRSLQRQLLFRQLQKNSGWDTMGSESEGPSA
Description: cryo-EM structure.

The target of experiment [2] is T2, ACT1 residues 372-574 (wild type) (human, UniProt O43734-1 372-574).
T2 sequence: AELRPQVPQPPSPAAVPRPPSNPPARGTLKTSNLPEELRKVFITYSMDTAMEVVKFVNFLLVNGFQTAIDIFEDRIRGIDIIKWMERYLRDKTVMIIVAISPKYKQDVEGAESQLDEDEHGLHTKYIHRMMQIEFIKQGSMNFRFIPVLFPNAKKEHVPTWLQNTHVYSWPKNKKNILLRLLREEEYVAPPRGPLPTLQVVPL
In words: negative-stain EM.

The target of experiment [3] is T2, ACT1 residues 372-574 (wild type). In words: SEC. For orientation: In gel filtration, larger molecules generally elute earlier.

Substitutions are numbered along the chain they refer to. Numbers in names are those of the source.

B1: ACT1 residues 372-574 Y558F (domain or fragment)
chain: T2 sequence with Y187F
As for B1, the binding result in experiment [1] was “binds”.

B2: IL-17RC-RA fusion (IL-17RC residues 510-705, 3x(GGGS) linker, IL-17RA residues 361-866) (other)
chain: ARGRAALLLYSADDSGFERLVGALASALCQLPLRVAVDLWSRRELSAQGPVAWFHAQRRQTLQEGGVVVLLFSPGAVALCSEWLQDGVSGPGAHGPHDAFRASLSCVLPDFLQGRAPGSYVGACFDRLLHPDAVPALFRTVPVFTLPSQLPDFLGALQQPRAPRSGRLQERAEQVSRALQPALDSYFHPPGTPAPGGGGSGGGSGGGSYTDGLPAADLIPPPLKPRKVWIIYSADHPLYVDVVLKFAQFLLTACGTEVALDLLEEQAISEAGVMTWVGRQKQEMVESNSKIIVLCSRGTRAKWQALLGRGAPVRLRCDHGKPVGDLFTAAMNMILPDFKRPACFGTYVVCYFSEVSCDGDVPDLFGAAPRYPLMDRFEEVYFRIQDLEMFQPGRMHRVGELSGDNYLRSPGGRQLRAALDRFRDWQVRCPDWFECENLYSADDQDAPSLDEEVFEEPLLPPGTGIVKRAPLVREPGSQACLAIDPLVGEEGGAAVAKLEPHLQPRGQPAPQPLHTLVLAAEEGALVAAVEPGPLADGAAVRLALAGEGEACPLLGSPGAGRNSVLFLPVDPEDSPLGSSTPMASPDLLPEDVREHLEGLMLSLFEQSLSCQAQGGCSRPAMVLTDPHTPYEEEQRQSVQSDQGYISRSSPQPPEGLTEMEEEEEEEQDPGKPALPLSPEDLESLRSLQRQLLFRQLQKNSGWDTMGSESEGPSA
Consider B2, for which the binding result in experiment [2] is given as “binds”.

B3: IL-17RB residues 328-484 (SEFIR domain, as part of the IL-17RB-RA fusion) (domain or fragment)
chain: LLPPIKVLVVYPSEICFHHTICYFTEFLQNHCRSEVILEKWQKKKIAEMGPVQWLATQKKAADKVVFLLSNDVNSVCDGTCGKSEGSPSENSQDLFPLAFNLFCSDLRSQIHLHKYVVVYFREIDTKDDYNALSVCPKYHLMKDATAFCAELLHVKQ
As for B3, in experiment [1], the binding result is on record as “binds”.

B4: IL-17RB-RA fusion (IL-17RB residues 328-484, 16-residue linker, IL-17RA residues 361-866) (other)
chain: LLPPIKVLVVYPSEICFHHTICYFTEFLQNHCRSEVILEKWQKKKIAEMGPVQWLATQKKAADKVVFLLSNDVNSVCDGTCGKSEGSPSENSQDLFPLAFNLFCSDLRSQIHLHKYVVVYFREIDTKDDYNALSVCPKYHLMKDATAFCAELLHVKQGGGSGGGSGGGSGGGSYTDGLPAADLIPPPLKPRKVWIIYSADHPLYVDVVLKFAQFLLTACGTEVALDLLEEQAISEAGVMTWVGRQKQEMVESNSKIIVLCSRGTRAKWQALLGRGAPVRLRCDHGKPVGDLFTAAMNMILPDFKRPACFGTYVVCYFSEVSCDGDVPDLFGAAPRYPLMDRFEEVYFRIQDLEMFQPGRMHRVGELSGDNYLRSPGGRQLRAALDRFRDWQVRCPDWFECENLYSADDQDAPSLDEEVFEEPLLPPGTGIVKRAPLVREPGSQACLAIDPLVGEEGGAAVAKLEPHLQPRGQPAPQPLHTLVLAAEEGALVAAVEPGPLADGAAVRLALAGEGEACPLLGSPGAGRNSVLFLPVDPEDSPLGSSTPMASPDLLPEDVREHLEGLMLSLFEQSLSCQAQGGCSRPAMVLTDPHTPYEEEQRQSVQSDQGYISRSSPQPPEGLTEMEEEEEEEQDPGKPALPLSPEDLESLRSLQRQLLFRQLQKNSGWDTMGSESEGPSA
Consider B4, for which the binding result in experiment [3] was “binds”.
